From paper PMC3726423, “Comparative Study of Two Box H/ACA Ribonucleoprotein Pseudouridine-Synthases: Relation between Conformational Dynamics of the Guide RNA, Enzyme Assembly and Activity” (PLoS ONE, 2013)
Positions count from the first letter of the chain named. Names may count otherwise.

T1: aCBF5 (P. abyssi, UniProt Q9V1A5 1-334)
T1 construct: aCBF5, archaeal H/ACA sRNP pseudouridine synthase, P. abyssi; also called pseudouridine synthase aCBF5; source: purified recombinant proteins
T1 sequence (looked up): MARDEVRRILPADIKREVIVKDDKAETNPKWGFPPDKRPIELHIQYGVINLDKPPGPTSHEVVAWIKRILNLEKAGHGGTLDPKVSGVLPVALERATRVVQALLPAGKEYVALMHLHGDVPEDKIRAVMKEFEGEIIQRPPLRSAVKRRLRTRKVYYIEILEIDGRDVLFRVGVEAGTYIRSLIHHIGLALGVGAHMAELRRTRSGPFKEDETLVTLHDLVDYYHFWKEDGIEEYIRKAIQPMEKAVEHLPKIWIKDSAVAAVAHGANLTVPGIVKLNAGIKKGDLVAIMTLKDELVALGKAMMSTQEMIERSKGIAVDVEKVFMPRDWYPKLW

B1: aNOP10 (natural protein, P. abyssi, UniProt Q9V0E3 1-60, looked up)
chain: MRFRIRKCPKCGRYTLKETCPVCGEKTKVAHPPRFSPEDPYGEYRRRLKRELLGIGRKEK
notes: aNOP10, archaeal H/ACA sRNP core protein, P. abyssi; source: purified recombinant proteins
B2: aNOP10 Y41A/Y44A (natural protein, P. abyssi, UniProt Q9V0E3 1-60, looked up)
chain: B1 chain with Y41A, Y44A
notes: aNOP10, P. abyssi, with two alanine substitutions in helix alpha1; also called aNOP10 mutant Y41A/Y44A; source: purified recombinant proteins

Target: T1, aCBF5
Test: native gel or EMSA; 32P 5' end-labelled sRNA Pab21 or Pab91 (~50 fmol) incubated with the proteins (200 nM each) in buffer D (150 mM KCl, 1.5 mM MgCl2, 0.2 mM EDTA, 20 mM HEPES pH 7.9) at 65°C for 10 min; non-denaturing polyacrylamide gel; the proteins are seen only through the shift of the labelled sRNA
Settings: both partners purified

Binder	binding result
B1	binds
B2	binds
